Source: publication doi:10.1101/2020.09.04.283184 (bioRxiv, 2020)

Biological target: the molecule itself
Test: PORT-HS-AFM

B1: Chlamydomonas reinhardtii SAS-6[NL] homodimer (domain or fragment, UniProt A9CQL4 1-503, looked up)
chain: MPLLLDDGDPKAQTGFDLSTATTLFWRPVPVHVKQQDREDVLEELTFRILTGVAKQNHNLRILRIHISSDSDLFFLHTLEVSEEDFQSLKNDQGILVDFASFPGKIISLLEKCILAQPGDSPRFQAVLTIRGGESVFKIVEINDFKQLPHITLAFRPGNDSVVKQFLAFRLSEVKGTCHDLSDDLSRTRDDRDSMVAQLAQCRQQLAQLREQYDKHLLEVQAQAKTQQASAHEERIREKSQLKDQFEKERGEMEGRYRDQIAALNTRLGELDTENRKLREVKYELDTKVSELSHKLGSSEGSNRSLEEETARLRSLNQQLSSSKHELEIQLNEAKAKVLALDEKAQSQGDVIEQQRGRLRDMEAALRQTEQRCADLRDTLASAEGRAKEAQAEVLKGNQAIEKLTNDLRLAKEKTKRKAAIILRQEEELQEREQSLANATRDVGVLGQQAESLRKDVASLHSENDSLRSKLEDSKQQLQSNEQMIRWLNQQVTEAQLHASGAT
stoichiometry N: 7 to 10 homodimers
